Assays:
[1] = target: T1, Kv1.1 (Homo sapiens, UniProt Q09470); assay: cell-based; assay type: cell-based; details: 100% = no change, <100% = inhibition
T1 construct: host or cells: HEK293 or CHO
How it was run: (§1)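 Peptides were tested in duplicate at final 20 μM and 200 nM, with concentration set by amino acid analysis, in HEPES-buffered saline. They were applied for at least 5 min to HEK293 or CHO cells transfected with each channel. Currents were expressed as % inhibition, 1-(Ipeptide/Icontrol)×100, or % activation, Ipeptide/Icontrol×100, against a channel-matched reference compound.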

[2] = target: T2, Kv1.2 (Homo sapiens, UniProt P16389); assay: cell-based; assay type: cell-based; details: 100% = no change, <100% = inhibition
T2 construct: host or cells: HEK293 or CHO
How it was run: as §1

[3] = target: T3, Kv1.3 (Homo sapiens, UniProt P22001); assay: cell-based; assay type: cell-based; details: 100% = no change, <100% = inhibition
T3 construct: host or cells: HEK293 or CHO
How it was run: as §1

[4] = target: T4, TRPA1 (Homo sapiens, UniProt O75762); assay: Ion channel panel (IonWorks Barracuda): TRPA1; assay type: cell-based; details: 100% = no change, <100% = inhibition
T4 construct: host or cells: HEK293 or CHO
How it was run: as §1

[5] = target: T5, Kir2.1 (Homo sapiens, UniProt P63252); assay: Ion channel panel (IonWorks Barracuda): Kir2.1; assay type: cell-based; details: 100% = no change, <100% = inhibition
T5 construct: host or cells: HEK293 or CHO
How it was run: as §1

[6] = target: T6, NR2A (Homo sapiens, UniProt Q12879); assay: Ion channel panel (IonWorks Barracuda): NR2A; assay type: cell-based; details: 100% = no change, <100% = inhibition
T6 construct: host or cells: HEK293 or CHO
How it was run: as §1

[7] = test system: GABA; assay: Ion channel panel (IonWorks Barracuda): GABA; assay type: cell-based; details: 100% = no change, <100% = inhibition
How it was run: as §1

[8] = target: T7, α3β4 (Homo sapiens, UniProt P30926+P32297); assay: Ion channel panel (IonWorks Barracuda): α3β4; assay type: cell-based; details: 100% = no change, <100% = inhibition
T7 construct: host or cells: HEK293 or CHO
T7 sequence (P30926 22-498): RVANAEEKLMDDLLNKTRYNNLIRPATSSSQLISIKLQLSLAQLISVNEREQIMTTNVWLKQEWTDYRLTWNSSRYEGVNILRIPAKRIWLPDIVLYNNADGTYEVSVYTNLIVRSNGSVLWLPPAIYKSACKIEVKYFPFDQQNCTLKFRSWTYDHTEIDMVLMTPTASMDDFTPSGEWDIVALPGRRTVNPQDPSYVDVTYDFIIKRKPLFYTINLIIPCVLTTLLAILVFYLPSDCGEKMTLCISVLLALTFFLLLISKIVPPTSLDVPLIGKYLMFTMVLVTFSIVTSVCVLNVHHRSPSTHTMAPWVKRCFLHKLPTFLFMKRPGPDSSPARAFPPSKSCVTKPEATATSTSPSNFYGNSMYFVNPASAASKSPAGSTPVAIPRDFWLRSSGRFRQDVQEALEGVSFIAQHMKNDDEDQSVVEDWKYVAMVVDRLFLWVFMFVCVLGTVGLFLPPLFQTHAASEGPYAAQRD
T7 sequence (P32297 32-505): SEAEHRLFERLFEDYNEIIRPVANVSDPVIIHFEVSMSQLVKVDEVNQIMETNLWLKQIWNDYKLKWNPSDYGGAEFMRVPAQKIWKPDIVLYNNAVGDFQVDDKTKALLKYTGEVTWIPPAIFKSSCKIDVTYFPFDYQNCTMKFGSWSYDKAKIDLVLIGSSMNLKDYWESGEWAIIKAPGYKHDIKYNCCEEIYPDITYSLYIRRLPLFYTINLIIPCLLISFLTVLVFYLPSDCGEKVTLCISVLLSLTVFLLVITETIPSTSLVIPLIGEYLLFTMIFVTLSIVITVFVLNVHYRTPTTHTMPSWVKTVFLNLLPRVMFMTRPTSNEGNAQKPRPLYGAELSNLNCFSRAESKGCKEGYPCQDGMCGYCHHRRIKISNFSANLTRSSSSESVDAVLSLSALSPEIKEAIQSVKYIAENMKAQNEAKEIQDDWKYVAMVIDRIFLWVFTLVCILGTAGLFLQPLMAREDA
How it was run: as §1

[9] = target: hERG (Homo sapiens, UniProt Q12809); assay: in vitro; details: 100% = no change, <100% = inhibition
How it was run: as §1

[10] = target: Nav1.5 (Homo sapiens, UniProt Q14524); assay: in vitro; details: 100% = no change; for Activity of Nav1.5 with peptide, expressed as a percentage of the reference compound: peptide at 0.2 μM; for Activity of Nav1.5 with peptide (percentage of the reference compound): peptide at 20 μM
Sequence of Nav1.5 (Q14524 whole entry): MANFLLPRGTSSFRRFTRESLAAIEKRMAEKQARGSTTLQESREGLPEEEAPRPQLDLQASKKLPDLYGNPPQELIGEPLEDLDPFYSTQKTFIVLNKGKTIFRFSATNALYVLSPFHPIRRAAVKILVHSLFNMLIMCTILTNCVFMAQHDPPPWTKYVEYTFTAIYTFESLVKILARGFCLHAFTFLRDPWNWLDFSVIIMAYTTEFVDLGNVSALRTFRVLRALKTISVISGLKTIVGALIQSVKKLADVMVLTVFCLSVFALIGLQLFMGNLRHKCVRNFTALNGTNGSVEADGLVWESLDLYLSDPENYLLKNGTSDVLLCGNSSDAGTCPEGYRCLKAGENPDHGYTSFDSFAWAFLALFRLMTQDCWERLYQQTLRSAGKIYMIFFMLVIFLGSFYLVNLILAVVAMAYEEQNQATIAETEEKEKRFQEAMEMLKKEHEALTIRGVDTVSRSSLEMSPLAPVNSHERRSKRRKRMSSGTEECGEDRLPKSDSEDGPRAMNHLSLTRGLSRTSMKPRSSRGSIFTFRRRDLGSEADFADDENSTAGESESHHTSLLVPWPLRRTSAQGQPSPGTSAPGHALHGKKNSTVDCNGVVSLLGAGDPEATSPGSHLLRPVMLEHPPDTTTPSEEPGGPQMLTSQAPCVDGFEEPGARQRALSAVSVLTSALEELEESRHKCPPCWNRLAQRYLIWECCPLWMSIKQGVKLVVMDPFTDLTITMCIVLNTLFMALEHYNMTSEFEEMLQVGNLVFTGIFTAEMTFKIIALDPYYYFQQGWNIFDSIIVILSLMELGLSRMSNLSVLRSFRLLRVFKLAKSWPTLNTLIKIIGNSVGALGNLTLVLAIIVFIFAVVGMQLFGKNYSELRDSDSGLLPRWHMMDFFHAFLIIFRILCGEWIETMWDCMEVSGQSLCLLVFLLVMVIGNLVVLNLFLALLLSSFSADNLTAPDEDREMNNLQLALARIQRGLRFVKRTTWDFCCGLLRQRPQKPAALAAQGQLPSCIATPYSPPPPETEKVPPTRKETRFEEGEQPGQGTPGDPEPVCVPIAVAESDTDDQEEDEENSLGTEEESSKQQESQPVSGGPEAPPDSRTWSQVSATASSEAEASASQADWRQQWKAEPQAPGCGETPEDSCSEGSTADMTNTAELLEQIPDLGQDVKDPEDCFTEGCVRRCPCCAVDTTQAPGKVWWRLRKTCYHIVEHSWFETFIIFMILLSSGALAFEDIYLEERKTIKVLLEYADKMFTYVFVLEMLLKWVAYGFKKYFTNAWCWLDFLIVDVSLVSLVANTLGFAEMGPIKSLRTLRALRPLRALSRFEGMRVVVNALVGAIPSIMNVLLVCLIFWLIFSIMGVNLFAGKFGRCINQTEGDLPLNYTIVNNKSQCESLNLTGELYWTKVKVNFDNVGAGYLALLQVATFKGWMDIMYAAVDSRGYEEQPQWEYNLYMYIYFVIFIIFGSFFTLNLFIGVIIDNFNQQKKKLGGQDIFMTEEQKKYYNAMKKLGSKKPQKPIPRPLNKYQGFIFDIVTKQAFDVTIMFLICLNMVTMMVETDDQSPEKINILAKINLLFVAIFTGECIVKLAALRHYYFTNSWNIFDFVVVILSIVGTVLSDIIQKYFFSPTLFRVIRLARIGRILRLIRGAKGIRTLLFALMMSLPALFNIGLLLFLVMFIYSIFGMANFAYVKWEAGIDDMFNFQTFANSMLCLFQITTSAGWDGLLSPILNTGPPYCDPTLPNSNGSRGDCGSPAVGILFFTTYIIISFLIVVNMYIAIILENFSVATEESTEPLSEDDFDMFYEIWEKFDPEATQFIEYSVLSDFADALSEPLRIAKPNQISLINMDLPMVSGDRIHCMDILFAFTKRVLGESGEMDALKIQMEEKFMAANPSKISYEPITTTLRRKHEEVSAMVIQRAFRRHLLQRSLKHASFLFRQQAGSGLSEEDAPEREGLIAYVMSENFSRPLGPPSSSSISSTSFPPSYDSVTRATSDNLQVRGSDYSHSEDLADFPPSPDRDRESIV
How it was run: as §1

[11] = target: T8, Nav1.7 (Homo sapiens, UniProt Q15858); assay: cell-based; assay type: cell-based; details: 100% = no change; for Activity of Nav1.7 with peptide, expressed as a percentage of the reference compound: peptide at 0.2 μM; for Activity of Nav1.7 with peptide (percentage of the reference compound): peptide at 20 μM
T8 construct: host or cells: HEK293 or CHO
T8 sequence (Q15858 whole entry): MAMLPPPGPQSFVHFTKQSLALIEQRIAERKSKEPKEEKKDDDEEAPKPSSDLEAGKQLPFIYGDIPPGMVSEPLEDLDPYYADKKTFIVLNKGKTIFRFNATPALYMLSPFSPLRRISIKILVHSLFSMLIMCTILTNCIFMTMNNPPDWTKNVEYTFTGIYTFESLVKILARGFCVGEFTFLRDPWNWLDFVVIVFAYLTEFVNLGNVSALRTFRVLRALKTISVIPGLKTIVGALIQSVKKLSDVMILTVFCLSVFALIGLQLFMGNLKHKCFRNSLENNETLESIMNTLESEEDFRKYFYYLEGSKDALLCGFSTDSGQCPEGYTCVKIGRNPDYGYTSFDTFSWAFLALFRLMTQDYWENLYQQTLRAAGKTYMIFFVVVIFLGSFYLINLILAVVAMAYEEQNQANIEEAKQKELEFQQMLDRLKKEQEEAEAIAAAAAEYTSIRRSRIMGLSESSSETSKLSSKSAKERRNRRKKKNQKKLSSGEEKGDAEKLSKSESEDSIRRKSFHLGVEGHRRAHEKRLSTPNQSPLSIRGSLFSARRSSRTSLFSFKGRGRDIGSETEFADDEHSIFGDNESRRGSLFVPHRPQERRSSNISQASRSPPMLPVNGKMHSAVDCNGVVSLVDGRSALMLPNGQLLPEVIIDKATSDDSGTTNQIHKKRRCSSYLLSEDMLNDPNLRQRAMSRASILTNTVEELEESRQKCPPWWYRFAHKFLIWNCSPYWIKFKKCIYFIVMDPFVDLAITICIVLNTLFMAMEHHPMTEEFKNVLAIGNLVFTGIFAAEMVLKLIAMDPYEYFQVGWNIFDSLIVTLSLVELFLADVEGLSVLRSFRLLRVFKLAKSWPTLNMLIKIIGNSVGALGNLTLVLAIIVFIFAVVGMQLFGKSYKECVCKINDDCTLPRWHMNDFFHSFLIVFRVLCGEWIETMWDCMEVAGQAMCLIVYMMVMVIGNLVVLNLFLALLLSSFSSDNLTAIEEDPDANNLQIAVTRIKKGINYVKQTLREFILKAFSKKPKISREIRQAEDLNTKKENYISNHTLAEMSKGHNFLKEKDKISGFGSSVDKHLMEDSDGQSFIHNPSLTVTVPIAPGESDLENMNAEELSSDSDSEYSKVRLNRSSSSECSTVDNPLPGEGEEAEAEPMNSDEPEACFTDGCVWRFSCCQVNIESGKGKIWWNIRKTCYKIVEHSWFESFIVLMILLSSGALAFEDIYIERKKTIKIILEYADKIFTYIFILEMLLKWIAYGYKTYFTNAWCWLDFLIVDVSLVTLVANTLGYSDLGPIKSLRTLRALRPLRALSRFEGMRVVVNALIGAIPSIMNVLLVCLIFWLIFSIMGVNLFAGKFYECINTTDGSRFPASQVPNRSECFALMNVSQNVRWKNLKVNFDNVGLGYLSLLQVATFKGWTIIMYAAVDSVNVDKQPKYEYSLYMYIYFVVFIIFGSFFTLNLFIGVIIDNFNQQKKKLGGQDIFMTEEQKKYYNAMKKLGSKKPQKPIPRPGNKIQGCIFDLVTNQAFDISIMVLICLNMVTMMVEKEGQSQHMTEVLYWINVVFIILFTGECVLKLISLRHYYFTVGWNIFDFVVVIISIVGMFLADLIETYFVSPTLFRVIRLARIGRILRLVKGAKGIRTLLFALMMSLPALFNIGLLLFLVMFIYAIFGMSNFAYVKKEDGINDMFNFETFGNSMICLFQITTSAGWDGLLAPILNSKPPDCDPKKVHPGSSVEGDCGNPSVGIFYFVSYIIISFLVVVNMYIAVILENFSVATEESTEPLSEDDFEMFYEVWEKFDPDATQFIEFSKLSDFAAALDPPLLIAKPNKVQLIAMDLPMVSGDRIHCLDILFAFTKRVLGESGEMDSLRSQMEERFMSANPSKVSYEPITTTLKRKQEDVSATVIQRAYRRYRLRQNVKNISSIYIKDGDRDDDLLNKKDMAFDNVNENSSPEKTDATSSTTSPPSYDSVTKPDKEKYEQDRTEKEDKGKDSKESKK

[12] = target: T9, α4β2 (Homo sapiens, UniProt P17787+P43681); assay: Ion channel panel (IonWorks Barracuda): α4β2; assay type: cell-based; details: 100% = no change, <100% = inhibition
T9 construct: host or cells: HEK293 or CHO
How it was run: as §1

[13] = target: T10, TRPV1 (Homo sapiens, UniProt Q8NER1); assay: Ion channel panel (IonWorks Barracuda): TRPV1; assay type: cell-based; details: 100% = no change, <100% = inhibition
T10 construct: host or cells: HEK293 or CHO
How it was run: as §1

[14] = target: T11, 5HT3a (Homo sapiens, UniProt P46098); assay: Ion channel panel (IonWorks Barracuda): 5HT3a; assay type: cell-based
T11 construct: host or cells: HEK293 or CHO
T11 sequence (P46098 whole entry, looked up): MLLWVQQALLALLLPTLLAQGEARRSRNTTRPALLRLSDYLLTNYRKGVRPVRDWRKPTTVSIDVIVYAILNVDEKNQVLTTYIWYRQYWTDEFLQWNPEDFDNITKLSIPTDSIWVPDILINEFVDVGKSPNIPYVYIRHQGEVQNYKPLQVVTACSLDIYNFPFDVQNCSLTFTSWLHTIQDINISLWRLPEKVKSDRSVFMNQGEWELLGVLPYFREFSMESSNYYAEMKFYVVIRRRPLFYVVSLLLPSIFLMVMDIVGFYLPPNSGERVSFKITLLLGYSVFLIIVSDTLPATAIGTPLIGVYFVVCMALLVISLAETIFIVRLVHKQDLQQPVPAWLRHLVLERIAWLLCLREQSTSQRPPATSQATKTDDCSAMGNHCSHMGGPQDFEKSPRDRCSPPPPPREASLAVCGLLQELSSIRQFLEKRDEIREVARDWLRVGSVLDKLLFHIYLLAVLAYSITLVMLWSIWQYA
How it was run: as §1

[15] = target: T12, Cav2.1 (Homo sapiens, UniProt O00555); assay: cell-based; details: 100% = no change, <100% = inhibition
T12 construct: host or cells: HEK293 or CHO
How it was run: as §1

[16] = target: T13, Kv2.1 (Homo sapiens, UniProt Q14721); assay: cell-based; details: 100% = no change, <100% = inhibition
T13 construct: host or cells: HEK293 or CHO
How it was run: as §1

[17] = target: T14, Cav2.2 (Homo sapiens, UniProt Q00975); assay: cell-based; details: 100% = no change, <100% = inhibition
T14 construct: host or cells: HEK293 or CHO
How it was run: as §1

[18] = target: T15, NR2B (Homo sapiens, UniProt Q13224); assay: Ion channel panel (IonWorks Barracuda): NR2B; assay type: cell-based; details: 100% = no change, <100% = inhibition
T15 construct: host or cells: HEK293 or CHO
How it was run: as §1

[19] = first of two Nav1.5 columns (probably TP1)
[20] = second of two Nav1.5 columns (probably TP2)
[21] = first of two Nav1.7 columns (probably TP1)
[22] = second of two Nav1.7 columns (probably TP2)

23 (GSCIGEGVPCDENDPRCCFGLVCLKPTLHGIWYKSYYCYKK) [compound 23]
Activity of Kv1.1 with peptide, expressed as a percentage of the reference compound ([1]; peptide at 0.2 μM): 95%
Activity of Kv1.1 with peptide (percentage of the reference compound) ([1]; peptide at 20 μM): 102%
Activity of Kv1.2 with peptide, expressed as a percentage of the reference compound ([2]; peptide at 0.2 μM): 83%
Activity of Kv1.2 with peptide (percentage of the reference compound) ([2]; peptide at 20 μM): 106%
Activity of Kv1.3 with peptide, expressed as a percentage of the reference compound ([3]; peptide at 0.2 μM): 81%
Activity of Kv1.3 with peptide (percentage of the reference compound) ([3]; peptide at 20 μM): 77%
Activity of TRPA1 with peptide, expressed as a percentage of the reference compound ([4]; peptide at 0.2 μM): 126%
Activity of TRPA1 with peptide (percentage of the reference compound) ([4]; peptide at 20 μM): 83%
Activity of Kir2.1 with peptide, expressed as a percentage of the reference compound ([5]; peptide at 0.2 μM): 105%
Activity of Kir2.1 with peptide (percentage of the reference compound) ([5]; peptide at 20 μM): 82%
Activity of NR2A with peptide, expressed as a percentage of the reference compound ([6]; peptide at 0.2 μM): 88%
Activity of NR2A with peptide (percentage of the reference compound) ([6]; peptide at 20 μM): 89%
Activity of GABA with peptide, expressed as a percentage of the reference compound ([7]; peptide at 0.2 μM): 100%
Activity of GABA with peptide (percentage of the reference compound) ([7]; peptide at 20 μM): 103%
Activity of a3b4 with peptide, expressed as a percentage of the reference compound ([8]; peptide at 0.2 μM): 94%
Activity of a3b4 with peptide (percentage of the reference compound) ([8]; peptide at 20 μM): 93%
Activity of hERG with peptide, expressed as a percentage of the reference compound ([9]; peptide at 0.2 μM): 92%
Activity of hERG with peptide (percentage of the reference compound) ([9]; peptide at 20 μM): 78%
Activity of Nav1.5 with peptide, expressed as a percentage of the reference compound [10, 19]: 85%
Activity of Nav1.5 with peptide, expressed as a percentage of the reference compound [10, 20]: 87%
Activity of Nav1.5 with peptide (percentage of the reference compound) [10, 19]: 85%
Activity of Nav1.5 with peptide (percentage of the reference compound) [10, 20]: 83%
Activity of Nav1.7 with peptide, expressed as a percentage of the reference compound [11, 21]: 89%
Activity of Nav1.7 with peptide, expressed as a percentage of the reference compound [11, 22]: 93%
Activity of Nav1.7 with peptide (percentage of the reference compound) [11, 21]: 65%
Activity of Nav1.7 with peptide (percentage of the reference compound) [11, 22]: 63%
Activity of a4b2 with peptide, expressed as a percentage of the reference compound ([12]; peptide at 0.2 μM): 87%
Activity of a4b2 with peptide (percentage of the reference compound) ([12]; peptide at 20 μM): 79%
Activity of TRPV1 with peptide, expressed as a percentage of the reference compound ([13]; peptide at 0.2 μM): 117%
Activity of TRPV1 with peptide (percentage of the reference compound) ([13]; peptide at 20 μM): 87%
Activity of 5HT3a with peptide (percentage of the reference compound) [14]: 101%
Activity of 5HT3a with peptide, expressed as a percentage of the reference compound [14]: 74%
Activity of Cav2.1 with peptide, expressed as a percentage of the reference compound ([15]; peptide at 0.2 μM): 95%
Activity of Cav2.1 with peptide (percentage of the reference compound) ([15]; peptide at 20 μM): 102%
Activity of Kv2.1 with peptide, expressed as a percentage of the reference compound ([16]; peptide at 0.2 μM): 93%
Activity of Kv2.1 with peptide (percentage of the reference compound) ([16]; peptide at 20 μM): 103%
Activity of Cav2.2 with peptide, expressed as a percentage of the reference compound ([17]; peptide at 0.2 μM): 110%
Activity of Cav2.2 with peptide (percentage of the reference compound) ([17]; peptide at 20 μM): 95%
Activity of NR2B with peptide, expressed as a percentage of the reference compound ([18]; peptide at 0.2 μM): 95%
Activity of NR2B with peptide (percentage of the reference compound) ([18]; peptide at 20 μM): 82%
